B1: LINE1-mini (parent)
chain: GGCAGAGCUCAACACAGCGUGGCAAAGUGGCUGUGGCUAGACUGCC

Variants of: B1
Experiment: self-cleavage, relative activity (ratio to wild type); higher = more cleavage; in vitro, sequencing; the parent is a self-cleaving ribozyme

**Q.** With GGGAGAGCUCAACACAGCGUGGCACAGUGGCUGUGGCUAGACUGCC [C3G A25C] as the variant, how does the self-cleavage read?
**A.** 0.18

**Q.** For GGCAGAGCUCAACACAGUGUGGCAACGUGGCUGUGGCUAGACUGCC [C18U A26C], which self-cleavage is on record?
**A.** 1.39

**Q.** For GGGAGAGCUCAACACAGCGUGGCAAAGUGGAUGUGGCUAGACUGCC [C3G C31A], which self-cleavage is on record?
**A.** 0.15

**Q.** For GGCAGAGCUGAACACAGCGUGGCGAAGUGGCUGUGGCUAGACUGCC [C10G A24G], which self-cleavage is on record?
**A.** 0.1

**Q.** For GGCUGAGCUCAAGACAGCGUGGCAAAGUGGCUGUGGCUAGACUGCC [A4U C13G], which self-cleavage is on record?
**A.** 0.1

**Q.** For AGCAGAGCUCAACACAGCGUGGCAAAGUAGCUGUGGCUAGACUGCC [G1A G29A], which self-cleavage is on record?
**A.** 0.63

**Q.** Which self-cleavage does the source give for GGCAGAGCUCAACACAGCGUGGCAAAGUGCAUGUGGCUAGACUGCC [G30C C31A] here?
**A.** 0.75

**Q.** For GGCAGAGCUCAACACAGCGUGGCAAAGCGGCUUUGGCUAGACUGCC [U28C G33U], which self-cleavage is on record?
**A.** 0.08

**Q.** With GGCAUAGCUCAACACAGCGUGGAAAAGUGGCUGUGGCUAGACUGCC [G5U C23A] as the variant, how does the self-cleavage read?
**A.** 0.11

**Q.** Which self-cleavage does the source give for GGCAGAGCUCAACACAGCGUGGCAAAAUGGCUGUGACUAGACUGCC [G27A G36A] here?
**A.** 0.09

**Q.** With UGCAGAGCUCAACACAGCUUGGCAAAGUGGCUGUGGCUAGACUGCC [G1U G19U] as the variant, how does the self-cleavage read?
**A.** 0.11

**Q.** For GGCAGAGCUCAACACAGCGUGGCAAAUUGGCUGUGGCUAGACUUCC [G27U G44U], which self-cleavage is on record?
**A.** 0.37

**Q.** For GGCAGAUCUCAACACAGCGUGGCAAAGUGGCUGUGGCUUGACUGCC [G7U A39U], which self-cleavage is on record?
**A.** 0.1

**Q.** Which self-cleavage does the source give for GGCAGAGCUCAACACAGCGAGGCAAAGUGACUGUGGCUAGACUGCC [U20A G30A] here?
**A.** 0.62

**Q.** For GGCGGAGCUCAACACAGCGUGGCAAAGUGGCUGUGGAUAGACUGCC [A4G C37A], which self-cleavage is on record?
**A.** 0.06

**Q.** For GGCAGUGCUCAACACAGCGUGGCAAAGUGGCUGUGGAUAGACUGCC [A6U C37A], which self-cleavage is on record?
**A.** 0.08

**Q.** With AGCGGAGCUCAACACAGCGUGGCAAAGUGGCUGUGGCUAGACUGCC [G1A A4G] as the variant, how does the self-cleavage read?
**A.** 0.31

**Q.** With GGCAUAGCUCAACACUGCGUGGCAAAGUGGCUGUGGCUAGACUGCC [G5U A16U] as the variant, how does the self-cleavage read?
**A.** 0.06

**Q.** With GGCAGAGUUCAACACAGCGUAGCAAAGUGGCUGUGGCUAGACUGCC [C8U G21A] as the variant, how does the self-cleavage read?
**A.** 0.39

**Q.** With GGCAGAGCUCAUCACAGCGUGGCAAAGUUGCUGUGGCUAGACUGCC [A12U G29U] as the variant, how does the self-cleavage read?
**A.** 0.37

**Q.** Which self-cleavage does the source give for GGCAGAGCUCAACACAGCGUGGCAAAGCGGCUGUGGCUAGAGUGCC [U28C C42G] here?
**A.** 0.13

**Q.** With GGCAGAGCUCAACACCGGGUGGCAAAGUGGCUGUGGCUAGACUGCC [A16C C18G] as the variant, how does the self-cleavage read?
**A.** 0.04

**Q.** Which self-cleavage does the source give for GGCAGAGCUCAACACAGCGCGGUAAAGUGGCUGUGGCUAGACUGCC [U20C C23U] here?
**A.** 0.61

**Q.** For GGAAGAGCUCAACACAGCGUAGCAAAGUGGCUGUGGCUAGACUGCC [C3A G21A], which self-cleavage is on record?
**A.** 1.23

**Q.** Which self-cleavage does the source give for GGCAGCGCUUAACACAGCGUGGCAAAGUGGCUGUGGCUAGACUGCC [A6C C10U] here?
**A.** 0.15

**Q.** For GGCAGAGCUCAGCACAGCGUGGCAAAGUCGCUGUGGCUAGACUGCC [A12G G29C], which self-cleavage is on record?
**A.** 0.02

**Q.** With GGCAGUGCUCAACACAGCGUGGCAAAGUGGCUGUGGCUAGACUGCG [A6U C46G] as the variant, how does the self-cleavage read?
**A.** 0.41

**Q.** For GGCAGAGCUCAACACAGCGUGGCAACCUGGCUGUGGCUAGACUGCC [A26C G27C], which self-cleavage is on record?
**A.** 0.9

**Q.** For GGCAGAGCUCAACAAAGCGUGGCAAAGUGGCUGUGGCUAGACUGUC [C15A C45U], which self-cleavage is on record?
**A.** 0.12

**Q.** Which self-cleavage does the source give for GGCAGCGCUCAACACAGCGUGGCAAGGUGGCUGUGGCUAGACUGCC [A6C A26G] here?
**A.** 0.65

**Q.** For GGCAGAGCUCAACACAGCGUCGCAAAGUGGGUGUGGCUAGACUGCC [G21C C31G], which self-cleavage is on record?
**A.** 0.09

**Q.** Which self-cleavage does the source give for GGUAGAGCUUAACACAGCGUGGCAAAGUGGCUGUGGCUAGACUGCC [C3U C10U] here?
**A.** 0.15

**Q.** For GGCAGAGCUCAACACAGCGUGGUAAAGUGGCUGUGGCUAGACUACC [C23U G44A], which self-cleavage is on record?
**A.** 0.64

**Q.** For GGCAGAGCUCAAUAGAGCGUGGCAAAGUGGCUGUGGCUAGACUGCC [C13U C15G], which self-cleavage is on record?
**A.** 0.08

**Q.** For GGCAGAGCUCAACUCAGGGUGGCAAAGUGGCUGUGGCUAGACUGCC [A14U C18G], which self-cleavage is on record?
**A.** 0.19

**Q.** With GGCAGAGCUCAACUCAGCGUGGCAAAGUGGAUGUGGCUAGACUGCC [A14U C31A] as the variant, how does the self-cleavage read?
**A.** 0.06

**Q.** Which self-cleavage does the source give for GGCAGAGCUCAACACAGCGUAGCAAAGUGGCUGUGGCUAGGCUGCC [G21A A41G] here?
**A.** 0.44

**Q.** Which self-cleavage does the source give for GGCAGAGCUCAACACAGCGUGGGAAAGUGGCUGUUGCUAGACUGCC [C23G G35U] here?
**A.** 0.11

**Q.** Which self-cleavage does the source give for GGCCGAGCUCAACACACCGUGGCAAAGUGGCUGUGGCUAGACUGCC [A4C G17C] here?
**A.** 0.08

**Q.** For GUCAGAGCUCAACACAGCGUGGCAAAGUGGCUGUGGCUAGACUGCU [G2U C46U], which self-cleavage is on record?
**A.** 0.06

**Q.** For GGCAGAGCUCAACACAGCGUGGCAAAGUGGCUGUGGCUAGACUAGC [G44A C45G], which self-cleavage is on record?
**A.** 0.2

**Q.** With GGCAGAGCUCAACACAGCGUGGCAAAGUGGCUGUUGAUAGACUGCC [G35U C37A] as the variant, how does the self-cleavage read?
**A.** 0.23

**Q.** For GGCAGAGCUCAAUACAGCGUGGCAAAGUGGCUGUGGCAAGACUGCC [C13U U38A], which self-cleavage is on record?
**A.** 0.04

**Q.** For GGCAGAGCUCAACACAGCGUGCCAAAGUGGCUGAGGCUAGACUGCC [G22C U34A], which self-cleavage is on record?
**A.** 0.09

**Q.** For GGCAGAGCUCAACACAGCGUUGCAACGUGGCUGUGGCUAGACUGCC [G21U A26C], which self-cleavage is on record?
**A.** 1.29

**Q.** With GGCAGAGCUCAACACAGCGUGGCUAAGCGGCUGUGGCUAGACUGCC [A24U U28C] as the variant, how does the self-cleavage read?
**A.** 0.69

**Q.** Which self-cleavage does the source give for GGCAGAGCUGACCACAGCGUGGCAAAGUGGCUGUGGCUAGACUGCC [C10G A12C] here?
**A.** 0.03

**Q.** For GGCAGAGCUCAACACAGCGUGGAAAAGUGGCUGUGGCUAUACUGCC [C23A G40U], which self-cleavage is on record?
**A.** 0.14

**Q.** For GGCAGAGCUCACCACACCGUGGCAAAGUGGCUGUGGCUAGACUGCC [A12C G17C], which self-cleavage is on record?
**A.** 0.02

**Q.** For GGCAGAGCUAAACACAGCGUGGCAAAGUGGCUGUGGAUAGACUGCC [C10A C37A], which self-cleavage is on record?
**A.** 0.01

**Q.** Which self-cleavage does the source give for GGCAGAGCUCAACACAGCGUGGCAAAGUGGCUGUGGCUAGUCCGCC [A41U U43C] here?
**A.** 0.09

**Q.** With GGCAGAGCUCAAGACAGCGGGGCAAAGUGGCUGUGGCUAGACUGCC [C13G U20G] as the variant, how does the self-cleavage read?
**A.** 0.13

**Q.** Which self-cleavage does the source give for AGCAGAGCUCAACACAGCGUGGCAAAGUGGCUAUGGCUAGACUGCC [G1A G33A] here?
**A.** 0.09

**Q.** Which self-cleavage does the source give for GGAAGAGCUCAACACAGCGUGGCAAAGUGGAUGUGGCUAGACUGCC [C3A C31A] here?
**A.** 0.16

**Q.** With GGCAGAGCUCAACACAGCGUAGCAUAGUGGCUGUGGCUAGACUGCC [G21A A25U] as the variant, how does the self-cleavage read?
**A.** 1.75

**Q.** Which self-cleavage does the source give for GGCAGAGCUCAACACAGCCUGGCAUAGUGGCUGUGGCUAGACUGCC [G19C A25U] here?
**A.** 0.26

— the RNAGym collection of RNA variant scans (doi:10.7554/elife.90254)
